This sample holds only a part of the variants without activity.
B1: TPR 5TU (parent)
chain: GGAUCUUCUCGAUCUAACAAAAAAGACAAAUCUGCCACAAAGCUUGAGAGCAUCUUCGGAUGCAGAGGCGGCAGCCUUCGGUGGCGCGAUAGCGCCAACGUUCUCAACUAUGACACGCAAAACGCGUGCUCCGUUGAAUGGAGUUUAUCAUG

Variants of: B1
Experiment: polymerase ribozyme fitness, log enrichment relative to wild type (log ratio); higher = more active; in vitro selection for triplet polymerase activity
Method in brief: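 To select mutant libraries of each subunit of a heterodimeric triplet polymerase ribozyme, built by PCR and transcribed, each was annealed with a biotinylated primer, partner subunit and triplets, then incubated frozen at −7 °C. Extended constructs were gel-excised, captured on streptavidin beads and amplified by RT-PCR, in one round carried out in triplicate. Illumina sequencing of input and output libraries kept genotypes with ≥10 input reads and ≥1 read per output. Fitness is the base-2 logarithm of genotype enrichment relative to wild-type enrichment, from inverse-variance-weighted replicate averages.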

Row | Variant | polymerase ribozyme fitness (log ratio)
1 | C32G U53C C76A | -4.09
2 | U33G G50C U56A U134G U145C | ≤ -4.2
3 | C35A G86A | ≤ -4.2
4 | C35U U146C | 0.279
5 | G34C A39G A49C A97U | ≤ -4.2
6 | U33A A49C G50C C76A C85G A138U U151C | ≤ -4.2
7 | C35U C75U G83A G84A C95U C96U | -1.5
8 | C32G U82G | ≤ -4.2
9 | C35G C95G A97C C114G G124A A138G | ≤ -4.2
10 | C35U G117A U144G A147C | -0.649
11 | C35U U61A G86A C125G G141U | ≤ -4.2
12 | C35A C57U C85U C118U G128A G152U | -3.96
13 | C35U G92A C96G A98C | -3.23
14 | C36A C87U | -3.89
15 | C35U C93G | -3.19
16 | U31G G59A | 0.625
17 | C35U A60G G136U | -3.08
18 | C35U G80A A91G G136A | -3.57
19 | C35U C87G | -3.84
20 | C36A C63U | -4.08
21 | C32G G42U U55A U61A C85A C95A A107U | ≤ -4.2

Row | Variant | polymerase ribozyme fitness (log ratio)
22 | U33A C43U A60U C93A C96U U151C G152A | ≤ -4.2
23 | U33C A41C | -3.48
24 | C32U G59C G84A | -1.81
25 | U33A A115G U139G | ≤ -4.2
26 | C32G C87G C93U C99G U104A C123U | ≤ -4.2
27 | C35G G58C G92U C125G A150U | ≤ -4.2
28 | U33G C38A C93U A113U G136A A138U | ≤ -4.2
29 | G34U G68U C95G G133A | ≤ -4.2
30 | C35U G133U | -3.79
31 | C35U U82C | 0.243
32 | G34A A60G G94A A147G A150C | ≤ -4.2
33 | U33G | -2.4
34 | U33A | -3.29
35 | U33C | -1.48
36 | U31G G84A A89G | -0.747
37 | U33A G50A A64C G83C | ≤ -4.2
38 | C35U U56G U134A | -2.9
39 | U33G G80C C85G | ≤ -4.2
40 | C32G U56A C57A C114G | -4.19
41 | C32G G59C U61A U82A G84U U134G G140C | ≤ -4.2
42 | C35G A37C A52G G86U A97G | -4.2

Row | Variant | polymerase ribozyme fitness (log ratio)
43 | G34U G42A U82C U135C | ≤ -4.2
44 | C35A U53A G62A | ≤ -4.2
45 | G34A C85U A147C U148G G152U | ≤ -4.2
46 | C35U G94U | -0.729
47 | G34A C85A A91C C103G | ≤ -4.2
48 | G34C G88U U144A | ≤ -4.2
49 | U33G C35U G59U C75G G128A U139A | -4.05
50 | U33A G58C G92A G136U | ≤ -4.2
51 | U33A G50C U56A C76A G81C | ≤ -4.2
52 | U33A A52G A60U G84A C95G U109G A115U G133U G140C U146G | ≤ -4.2
53 | C35U U77A C149A | ≤ -4.2
54 | U33A A60C G74A A137C A150U | ≤ -4.2
55 | C35U G50U G83U C87A A115C C118G | ≤ -4.2
56 | C35U A52G C76A A89C U145A | -3.45
57 | C36A G92A | -3.98
58 | C35G U53G A64C C79G U109A A115U G128C A142G | ≤ -4.2
59 | C32G G42A U77C G84U | ≤ -4.2
60 | C32G U53A C79U G140U | -4.06
61 | U31G U61A A66G U90C U101C | ≤ -4.2
62 | C32U G50U C95A C131U G143A U151C | ≤ -4.2
63 | G34A U55A G70U G80U G86A | ≤ -4.2

Row | Variant | polymerase ribozyme fitness (log ratio)
64 | U33G A49C C75G G92A U101G C105A | -4.15
65 | C32G C87U | -3.63
66 | U33A U45A G68U C87A U127C A137U | ≤ -4.2
67 | U33G A41C C43U G50A G152U | -4.07
68 | U33G G50U C51G A52C C76A G92A C93A A98U | ≤ -4.2
69 | G34C U45A G50C A52C U53A C76A G81A G92A C105G | ≤ -4.2
70 | C32G A49C U53A C85U G86U C99A A138G A150G | -4.03
71 | U33A C38G A52U C87G G136A | ≤ -4.2
72 | G34A A66U C75U A137G | ≤ -4.2
73 | C32U U56A G58A G68A C76A C93A | ≤ -4.2
74 | C32G U33A C43G G81U G84A A142G | ≤ -4.2
75 | C35U A40U U55A C99A U101G G152A | ≤ -4.2
76 | C35U C51G G71U C131U | ≤ -4.2
77 | C32G U55A C79A C116G C149A | ≤ -4.2
78 | C35U C57G G86U G133A | -3.89
79 | C35G G71A C96G U139G | -3.91
80 | C32U G46A C51G U53C G67C G86U U101G A138U | ≤ -4.2
81 | C35G G88A C95U U101A G141C | -4.12
82 | C32G A49C A52C G143U | ≤ -4.2
83 | C36A C76U | ≤ -4.2
